Experimental data published in patent US20230357415A1.

Target: IL-5Rα expressed on cells (TF-1/IL-5Rα cells; human eosinophils) (human) (UniProt Q01344)
Assay: cell-based or functional assay

IL-5Rα expressed on cells (TF-1/IL-5Rα cells; human eosinophils) (human), sequence (Q01344 21-420): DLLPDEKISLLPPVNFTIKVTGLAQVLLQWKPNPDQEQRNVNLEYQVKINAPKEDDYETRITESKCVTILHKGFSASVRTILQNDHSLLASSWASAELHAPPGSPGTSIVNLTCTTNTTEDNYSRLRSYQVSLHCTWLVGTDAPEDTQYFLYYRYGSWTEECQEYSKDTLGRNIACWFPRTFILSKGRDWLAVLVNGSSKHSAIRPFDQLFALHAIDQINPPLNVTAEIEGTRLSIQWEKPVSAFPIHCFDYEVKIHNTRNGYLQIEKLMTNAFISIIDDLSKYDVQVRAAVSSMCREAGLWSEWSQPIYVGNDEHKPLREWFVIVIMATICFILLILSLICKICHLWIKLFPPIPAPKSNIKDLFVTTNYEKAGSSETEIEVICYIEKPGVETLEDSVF

absolute IC50 (Abs IC50), inhibition of IL-5-dependent proliferation of TF-1/IL-5Rα cells: 1.99 nM
Substance: benralizumab analogue (antibody)
